According to patent publication US20250306040A1 (UNIVERSITY OF KENTUCKY RESEARCH FOUNDATION, published 2025):
Each block holds one binder with its values, some of them ahead of it. No end group written: not given here.

Experiments:
[1] = molecular target: T1, Aβ40 synthetic peptide (AS-24235, Anaspec) (human, UniProt P05067 672-711); experiment: time course (0 to 24 hours) of sandwich ELISA signal of human amylin incubated with Aβ40, in parallel with Th-T fluorescence
T1 construct: domain: Aβ40; also called human Aβ40
T1 sequence (P05067 672-711 limits assumed): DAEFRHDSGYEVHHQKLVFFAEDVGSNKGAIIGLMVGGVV

[2] = molecular target: T1, Aβ40 synthetic peptide (AS-24235, …); experiment: amylin-Aβ sandwich ELISA on co-incubated peptides, human amylin against rat amylin
Description: The reaction was stopped by adding 50 μL of stop solution (N600, Thermo Scientific) after developing the signals, the plate was read at 450 nm in a spectrophotometer. Amylin-Aβ concentrations were calculated by generating a graph between relative optical density (O.D.) 450 of standards vs standard concentrations, after subtracting the optical density of standard blank and sample blank from the optical density of standards and samples respectively.
Amylin-Aβ aggregates were prepared using the procedure described by O'Nuallain et al. Briefly, 30 μM human amylin synthetic peptide (AS-60254-1, Anaspec) was incubated in PBSA (PBS+0.05% sodium azide) in a water bath at 37° C. for 5 hrs. Aβ₄₀ synthetic peptide (16.2 μM) (AS-24235, Anaspec) was preincubated at 37° C. for 2 hrs. […]
Specificity of amylin-Aβ sandwich ELISA was confirmed using a solution phase amylin-Aβ aggregation assay described in O'Nuallain et al. Synthetic human amylin and Aβ₄₀ peptides were incubated for promoting the amylin-Aβ aggregation and subjected to the amylin-Aβ sandwich ELISA. […] A robust amylin-Aβ immuno-reactivity signal was detected in co-aggregated amylin-Aβ solution, but not in the homogenous amylin and Aβ solutions (FIG. 2A). The aggregated amylin-Aβ solution was assayed for biochemical characteristics of amyloid by measuring the Thioflavin-T (Th-T) fluorescence signal intensity. […]

[3] = molecular target: T1, Aβ40 synthetic peptide (AS-24235, …); experiment: amylin-Aβ sandwich ELISA on co-incubated peptides

- fold increase of signal intensity from the baseline [1]: 3 fold
- fold amylin-Aβ ELISA signal intensity against rat amylin-Aβ co-aggregation [2]: ~7 fold
B1: human amylin synthetic peptide (AS-60254-1, Anaspec) (peptide)
peptide: KCNTATCATQRLANFLVHSSNNFGAILSSTNVGSNTY
modifications: ends and bridges not checked; cysteine pairing not given here
notes: The same id is used for human amylin in human brain sections and in HIP rat pancreas; also called islet amyloid polypeptide; IAPP

- binding result [3]: binds
B2: rat amylin (peptide, UniProt P12969 38-74, looked up)
peptide: KCNTATCATQRLANFLVRSSNNLGPVLPPTNVGSNTY
notes: also called rodent amylin; non-amyloidogenic rat amylin
